Measured values from patent publication US20240067721A1 (UNIVERSITY OF BIRMINGHAM, published 2024).

T1: recombinant GPVI-Fc (dimeric; D1 and D2 domains of GPVI fused to the Fc domain from IgG) (human, UniProt Q9HCN6 22-203)
T1 construct: range 22-203; also called GPVI-Fcγ; dimeric GPVI; not shown: Factor Xa cleavable junction and Fc domain from IgG (Sigplg+ vector)
T1 sequence (looked up): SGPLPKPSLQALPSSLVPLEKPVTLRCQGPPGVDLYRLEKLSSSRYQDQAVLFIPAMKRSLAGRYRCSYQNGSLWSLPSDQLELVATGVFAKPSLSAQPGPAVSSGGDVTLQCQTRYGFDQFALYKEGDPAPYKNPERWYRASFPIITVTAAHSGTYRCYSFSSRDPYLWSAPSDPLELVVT

T2: GPVI on human washed platelets (human, UniProt Q9HCN6 21-339)
T2 construct: whole, on cells; also called platelet GPVI
T2 sequence (looked up): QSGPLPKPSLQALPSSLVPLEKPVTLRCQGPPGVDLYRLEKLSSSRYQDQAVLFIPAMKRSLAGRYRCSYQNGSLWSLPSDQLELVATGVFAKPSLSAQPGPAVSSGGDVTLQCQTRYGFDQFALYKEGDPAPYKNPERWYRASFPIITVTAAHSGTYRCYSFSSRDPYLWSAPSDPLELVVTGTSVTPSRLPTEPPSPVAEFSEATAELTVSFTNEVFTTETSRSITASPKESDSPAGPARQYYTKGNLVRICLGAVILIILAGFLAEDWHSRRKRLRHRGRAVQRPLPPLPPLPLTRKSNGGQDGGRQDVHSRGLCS

B1: un-tagged Nb2 (thrombin-cleaved nanobody 2) (VHH)
VHH: QVQLQESGGGLVQPGGSLRLSCAAAGFTFDYYAIAWFRQAPGKEREGVSCISSSDGTTYYADSVKGRFTISKDNAKNTMYLQMNSLKPEDTAVYYCATSPLYSTNDRCISEDYDYWGQGTQVTVSS
notes: also called un-tagged nanobody 2
B2: Nb28 fluorescently labelled with AlexaFluor 647 (Nb28-AF647) (VHH)
VHH: QVQLQESGGGLVQAGDSLRLSCAASGTYSMGWFRQAPGKEREFVAAISWSGGRTNYADSVKGRFTISRDNAKNTVYLQMNSLKPEDTAVYYCSAAIYDNVSSRIGSYTYWGQGTQVTVSS
modifications: AlexaFluor 647 dye on free amino groups (NHS-ester labelling)
notes: also called labelled Nb28

Legend:
[1] = target: T1, recombinant GPVI-Fc (dimeric; D1 and D2 …); experiment: displacement of GPVI-Fc (100 nM) from collagen surface; Nb2 freeze-thawed, day 0
Protocol: (§1) Freshly made un-tagged nanobody 2 (4.2 mg/ml in PBS) was stored at 4° C. over a period of 72 hours. Samples were collected at 0, 24, 48 and 72 hours for ELISA and nanodrop analysis. 1 ml of Nb2 was also filtered using a Whatman 0.2 um syringe filter, and 50 μL was snap-frozen and thawed to determine the effects of both syringe filtering and freeze-thawing on nanobody function. The freeze-thawed sample was only tested between 0-48 hours after thawing. ELISA displacement assays were performed on each sample as described in ‘Solid-phase binding assay’. Nb2 concentrations were determined at each time point by measuring absorbance a 280 nm using a nanodrop ND-1000 spectrophotometer.
(§2) Nb2 stability at 4° C. was tested by comparing the ability for nb2 to displace GPVI-Fc binding to a collagen surface after 0-, 24-, 48- and 72-hours storage at 4° C. (FIG. 8). Nb2 was stored in PBS with no added preservatives. In addition, samples of nb2 that were freeze-thawed and an additional sample that had been filtered were also tested. […] There was an observed reduction in protein concentration of approximately 3% when filtering but it is not abnormal for small losses in protein yield when filtering.

[2] = target: T1, recombinant GPVI-Fc (dimeric; D1 and D2 …); experiment: displacement of GPVI-Fc (100 nM) from collagen surface; Nb2 freeze-thawed, day 1
Protocol: as §1, §2

[3] = target: T1, recombinant GPVI-Fc (dimeric; D1 and D2 …); experiment: displacement of GPVI-Fc (100 nM) from collagen surface; Nb2 freeze-thawed, day 2
Protocol: as §1, §2

[4] = target: T1, recombinant GPVI-Fc (dimeric; D1 and D2 …); experiment: displacement of GPVI-Fc (100 nM) from collagen surface; Nb2 syringe-filtered, day 0
Protocol: as §1, §2

[5] = target: T1, recombinant GPVI-Fc (dimeric; D1 and D2 …); experiment: displacement of GPVI-Fc (100 nM) from collagen surface; Nb2 syringe-filtered, day 1
Protocol: as §1, §2

[6] = target: T1, recombinant GPVI-Fc (dimeric; D1 and D2 …); experiment: displacement of GPVI-Fc (100 nM) from collagen surface; Nb2 syringe-filtered, day 2
Protocol: as §1, §2

[7] = target: T1, recombinant GPVI-Fc (dimeric; D1 and D2 …); experiment: displacement of GPVI-Fc (100 nM) from collagen surface; Nb2 syringe-filtered, day 3
Protocol: as §1, §2

[8] = target: T1, recombinant GPVI-Fc (dimeric; D1 and D2 …); experiment: displacement of GPVI-Fc (100 nM) from collagen surface; Nb2 stored at 4 °C, non-filtered, day 0
Protocol: as §1, §2

[9] = target: T1, recombinant GPVI-Fc (dimeric; D1 and D2 …); experiment: displacement of GPVI-Fc (100 nM) from collagen surface; Nb2 stored at 4 °C, non-filtered, day 1
Protocol: as §1, §2

[10] = target: T1, recombinant GPVI-Fc (dimeric; D1 and D2 …); experiment: displacement of GPVI-Fc (100 nM) from collagen surface; Nb2 stored at 4 °C, non-filtered, day 2
Protocol: as §1, §2

[11] = target: T1, recombinant GPVI-Fc (dimeric; D1 and D2 …); experiment: displacement of GPVI-Fc (100 nM) from collagen surface; Nb2 stored at 4 °C, non-filtered, day 3
Protocol: as §1, §2

[12] = target: T2, GPVI on human washed platelets; experiment: flow cytometry on washed platelets, 100 nM Nb28-AF647, with or without 500 nM Nb2
Protocol: a) Washed platelets were incubated in an aggregometer at 37° C. and 1200 rpm in the presence of Nb28 or PBS control prior to stimulation with 10 μg/ml Horm collagen and aggregation traces captured. Nb28 had no effect on aggregation. b) Thrombin inhibited whole blood was preincubated with either vehicle (PBS) or 500 nM of unlabelled Nb28 and then flowed over fibrillar collagen I utilising the Maastricht flow chamber at 1000/s. None of the five investigated parameters of thrombus formation or platelet activation were affected by Nb28. Each data point represents one donor (n=4), unpaired non-parametric t-test was utilized to test for significance.
Washed platelets were preincubated with 500 nM Nb2 or PBS vehicle control for 10 min, followed by addition of 100 nM Nb28-AF647 and immediate fixation. 50,000 events were acquired and Nb28-AF647 signal (FL4) measured with an Accuri C6 flow cytometer (BD) and data processed with the BD Accuri C6 Software.

Row | Binder | IC50 [1] [nM] | IC50 [2] [nM] | IC50 [3] [nM] | IC50 [4] [nM] | IC50 [5] [nM] | IC50 [6] [nM] | IC50 [7] [nM] | IC50 [8] [nM] | IC50 [9] [nM] | IC50 [10] [nM] | IC50 [11] [nM] | binding result [12]
1 | B1 | 46.5 | 29.8 | 44 | 45.7 | 40.3 | 35.2 | 37.1 | 37 | 54.4 | 34 | 32.4 | –
2 | B2 | – | – | – | – | – | – | – | – | – | – | – | binds
